A protein production outcome set (Wang et al. 2014)

Experiment: label from the status in PepcDB records

Sequence | protein production
MAGKQQERVNVEGHELTLTNLNKIIYPETGTTKAEVLEYYAAVAPFLIPAAANRPVTRKRWVNGVGTAENPGQVFFQKNLEDSAPKWIPRAAIQHSDHTNVYPMVNNLATLTWMAQIASLEIHVPQWQVDPSGKPLRPDRFVLDLDPGPGAGLPECVEVAKLARSILQDMGMDPVPVTSGSKGIHLYTGLDGTLKSEQVSAFAKELARALESDHPELVVSDMKKSLRHGKVLVDWSQNSGNKTTIVPYSLRGKAHPTVAAPRTWRELSSPSLEHLDYVAVMKRVKTGKDHFAPISERHLPPHGEDENDDDGTAGSSSGTGRSRERVVTVENRLAKYVGMRDPGKTPEPFPSSSAVSASPQSAGSSSDQPKPGDPPPPGGIFVIQEHHARRYHLDLRLEHHGVLASWALPRGIPETPDRNNLAVHTEDHPMEYANFAGVIPKGEYGAGTMTIWDRGEYTCEKWRDGKEVIATLTGEPGGGLGGTKRFALINTGQNWLIHLMKEQPGGRRGTQPAANAAAPKSAPAQPQPQPMPNYSPMLATSGTTADLRGDDWLYELKWDGIRAIITGTESRIRLMSRNGNDLTAAYPELTDRACWPDGDFVADGEIVALGKGSRPDFGRLQLRMNLVKAADIERARATVPVQLMLFDLLYDDGTDLSGLPFHERRERLSGFAERWRVGCPLHLSAVLDHDVEDLMTSAAELGLEGVMAKKADSRYVIGRRSRSWIKLKLEQSQEVVVGGWRPGAGARAGTFGALLLGIPDGDKLHYVGRVGSGFKDWQLRDIMEKLEPLAIVESPFADIPREDAAGATWVSPELVAEVTFGEWTGPGRLRHPVWRGWRPDKSAGEVTLAGS | failed
MAGLAISPPLGLSFSSRTRNPKPTSFLSHNQRNPIRRIVSALQSPYGDSLKAGLSSNVSGSPIKIDNKAPRFGVIEAKKGNPPVMPSVMTPGGPLDLSSVLFRNRIIFIGQPINAQVAQRVISQLVTLASIDDKSDILMYLNCPGGSTYSVLAIYDCMSWIKPKVGTVAFGVAASQGALLLAGGEKGMRYAMPNTRVMIHQPQTGCGGHVEDVRRQVNEAIEARQKIDRMYAAFTGQPLEKVQQYTERDRFLSASEALEFGLIDGLLETEY | not failed
MAGLFTPKDAAMNIAIVTINQENAAIASWLAAQDFSGCTLAHWQIEPQPVVAEQVLDAMVEQWQRTPADVVLFPPGTFGDELSTRLAWRLHGASICQVTSLDIPTVSMRKSHWGNALTATLQTEKRPLCLSLARQAGAAKNATLPSGMQQLNIVPGALPDWLVSTEDLKNVSRDPLAEARRVLVVGQGGEADNQEIVMLAEKLGAEVGYSRARVMNGGVDAEKVIGISGHLLAPEVCIVVGASGAAALMAGVRNSKFMVAINHDASAAVFSQADIGVVDDWKVVLEALVTNIHAEYQ | failed
MAGLINKIGDALHIGGGNKEGEHKKEEEHKKHVDEHKSGEHKEGIVDKIKDKIHGGEGKSHDGEGKSHDGEKKKKKDKKEKKHHDDGHHSSSSDSDSD | failed
MAGLLSGLPMTSALVMLFLSLEQGAVFASMAVPGALAGLAAIQATYLFYFLVTRRVSAVAGCVLALALYGATAFLMNLSGSLALSILFTLLMVALIIVATSKQTPPAAAPYVALPRWVIPMRMLTATLLLLAITASATWLGPVVSGLLAPIPVIAWPLAVFVHVQGGRYELAAIIRGNAIGAVGVLSFYLTLRYSLLQWGALLSITTAVLLAVVVTAVLARLLAKR | failed
MAGQTEQVLNGVLEDIEHGRLGPGDLLEEAALTERHGVSRTPVREALIQLETQGLIRRLPRKGAVVFKPTLEEFLAILEVHARLEGQAAGLAARRMNATQAAELEAVVAACEAHARDKGDGDPFGYYRLNLRFHETVALGAGNPYLVEMIKTHARKLLAYYRARYSYPGSIPASAREHRQIATLIFDRRREEAEAAMIRHVQFDQVTVMDLLAALG | failed
MAGRQPGGAAMKALLHGIAEGNGRTLRNLLGLLIFIGGGYLLGRHALLLAELNLPAPIVLALKGGLLCAFGTALGAMPVLVVKTMPARLSDALLGFGAGVMLSATAFSLIMPALSAAGDLGYSKFGAGFLVSFGLAVGVMGLFILGRLMPDVHPGCEGAPLSGGIPPRILLFVTAIVLHNIPEGMAVGVSAGAGLDEANGLALGIALQDVPEGLVVALVLAGVGMSRFKAMLVGAASGLVEPLFAVLCAWLVGLSALLLPWGLAAAAGAMLFVVTHEIIPESHRQGHAAEATLGLVFGFCLMMVLDTALG | failed
MAGSHAGTLRVLQAVDTELTADSVEWCPVEGYQHLLACGTYQLRAPRDQPALDGSEPQVRLGRLYLFSFSEHNTAKPLLEVQRRDSSAVLDMKWCHIPVSGHVLLGLANASGSIGLLRLMECENNSYTLQPISSLALDENCLSLSMDWSTGKSVRAREQPLKIISSDSKGQLHLLMVNEGTAELQLVASWPAHHFEAWIAAFNYWQTELVYSGGDDCLLRGWDTRMLGTPVFTSKRHCMGVCSIQSSPHQEHILATGSYDEHVLLWDTRNIRQPLADVPVQGGVWRLKWHPVHHHLLLAACMHNGFKILNCQKAIEEKQDITVLTSHEMPNSLVYGADWSWLFHSMKPTPTWFFDQNDMGVKAADHSSLKVTEEPPIHSQEQTMDRQVEGPANAHTRAELKASLLPLTEDMKNSKDCSSSSVKTRDLSHCSGGQSFDNSLLATCSFYDHVLHLWKWETNQARTLCSGTGCDLGSADH | failed
MAHEGEQFIKDIQREYVDFLDDEEDQGIYAGHVKDMIAEKSKRLIVNVNDLKRKNPQRALGLLSNAADEQLAFGRALKEYASTVDPGYAKMHEDLFVGFEGCFGNRHVTPRSLTSIYLGNMVCVEGIVTKVSLIRPKVVRSVHYCPNTRKVMERKYTDLTSFEAVPSGAAYPTKDEDGNLLETEYGLSVYKDHQTLTIQEMPEKAPAGQLPRSVDIVCDDDLVDRCKPGDRVQIVGSYRCLPGKRGGYTSGTFRTVLLANNISLLSKESNLDISREDIMLCKKLAKNNDIFELLSKSLAPSIHGHAYVKQAILCLLLGGVEKILPNGTRLRGDINVLLIGDPSVAKSQLLRYVLNTAPRAIPTTGRGSSGVGLTAAVTTDQETGERRLEAGAMVLADRGVVCIDEFDKMSDIDRTAIHEVMEQGRVTISKAGIHASLNARCSVLAAANPVYGRYDQYKTPMENIGLQDSLLSRFDLLFVMLDVIDSDVDQMISDHVVRMHRYRNPKEADGEPLSMGSSYADSLSFVSSSEEKKDTEVYEKYDALLHGKSRQRHEKILSVEFMRKYIHIAKCMKPKLGEQACEAIANEYSRLRSQEAVETDVARTQPITARTLETLIRLSTAHARARMSKSVTIDDAHAAIELVQFAYFKKVLDKDRPSKRRRNSGSDAEDDNGEASSQRSPSRRSKRTRTATVGADSDEEDIEPPQPDAGDLTRRETRRSLPARSVAMLMASPSSEEQSVATSTTEPAIISDARLGEFKNNLQRLFREAREQSLALARITTAINVGSQEPFTAGEIEAAVHRMTEDNQIMVADDIVFLI | failed
MAHPPQIRIPATYLRGGTSKGVFFRLEDLPESCRVPGEARDRLFMRVIGSPDPYAAHIDGMGGATSSTSKCVILSKSSQPGHDVDYLYGQVSIDKPFVDWSGNCGNLSTGAGAFALHAGLVDPARIPEDGICEVRIWQANIGKTIIAHVPVSGGQVQETGDFELDGVTFPAAEIVLEFLDPSDDGEDGGAIFPTGNLVDDLEVPGVGTFKATMINAGIPTVFVNAEEIGYRGTELREEINGDPQQLARFERIRVAGALRMGLIKTPEEAATRQHTPKIAFVAPPRDYRTASGKLVAAGDIDLLVRALSMGKLHHAMMGTAAVAIGTAAAIPGTLVNLAAGGGERSAVRFGHPSGTLRVGAEASQANGEWTVTKAIMSRSARILMEGWVRVPGDAF | not failed
MAHSPLVSIVVPAHNAEATLARALDCLLDQEIVDWEAVIVDDASTDRTPAIIAGYVEHDARFRTLRSSTSSAAGARNSGISTARGHWLMFLDADDWVDASFLAKMLAALKAAPDAVAAYCGSRRVMPDGELTPSSISTEVAIQPFETFARQCAIRTHALLVDREAIVGLGGFDVSLRTCENWDLWQRLAHLGKRWVMVDEPLAFYRVSPNSLSRNSTQMLADAEIVIARGFSADPRVSHPASGQANGAISANGGTASEALAWFALWNAASDCGRGSRSIDPQALRALPAGRKWAREIAEVAIDGLMVGSLSVPAQLAARWGRFGGPLTELIIELGKVWDNPAAGRRVQYQLEQMLLDADDLAAPRRLARTLGIRVDVRNPNAIELPEGIDRIYAYLMMDGQIEAVVQFGVLGTVTRDHWIELIQNVVPAERLADSTARLAGRSTVPQEGAGADTSNTFAAEALLFTAERRSDPDSHFGKLAQLTAEARELVRSSAEPEQPPAVPRRARAADTNDRTAFWNSYFATEDPWNYGSLYEQEKYQRQLEILPAGPIGRVLELACAEGHFTRQLAPRVSHLTATDISAIAIERARARCGDQPNIEFGVLDFAADMLPGEMDLIVCSEVLYYLDDLADLRRITKKFTEALAPGGSFITAHAFVLRDNVERTGFDWNTFGAQAISETLAATEGLVLEQSIQTELYRIDRFRRLSPDDLVTEPMIDHAPIRAQIEIGVARNIIWGGARALRRDVARNEQRQRVPVLMYHSVSDDGPAALARFRLTPAGFGSQMAWLRANGFHAINSEQLEGCIANRQPFVGRPVLITFDDGFQNFADHAWPTLRANDLTAEVFLVTDLVGKGAQWDAHNGPPTQLMDAGTVRRLAGEGAFFGSHMATHRAIDGLSSSDLAAELLRSRMFIERWTGRPTTAFTAPFSVTDRRLGRLARECGYRIGFGARHGPADLDCDLIDLPRIEIRGDRSLDDFVATVEAVLKER | failed
MAHTVYENARIYTVNDQQPTASVLVVEQGKIIYVGGNDGAKQFKATAAELFDLEGKTVLPGFIESHAHPLEHHHHHH | failed
MAIARALRDELSFGAVSRRENPVSAHIPYSRHVSDEVIKTQDGMLMSFVHMSGLCFETIDIAEINSRLLGRNDLIRGLANSRYAIYSHIVRREVKPAIESSFENKFCQELDQRYTAALRTQRMFVNDIYLTIVRRELQGTVGTADLVIRKLLGRRAADGRSSSEERALIELTDVMKAVRESLQAYGARVLTVVKRNDVWHSEPLEFLVQLVNGGFPRPMALPRMKLAEALATKRLFFGPNALEIRGAFPGETRYGAIISVGEYPSITGPGMLNPMLKVPHEFIVTQSFAIIDKPQALTQMERVGRKIDMSDEADSIVGDQLGEARDELLSSEALYGLHHLTVLCLGKTMDDVARCVTDVGTALTEVSALWVREDLNCEPAFWATLPGNFAYVARKSMISSKNMAGFSAFHNYPSGRTGGVHWGMPISVLETTSQTAYFFNFHVRDLGNFTLNGPSGSGKTVLLGFLAAQAQRITPRPKLVMIDKDRGLDIFVRSLGGRYEVLKAGEPSGFNPLRLPDTPRNREFLFQLFSFILRRSDGYAHSTREEQVIRNAIAQVASAPPEGRTMEEFAELLRGAMRAGDDDLYSRLQPWMRPDQRGWLFNNAEDSFSMSSIFGFDMTSVLSDATTSTAALLYIFHRIEELLDGQPVMIFLDEGWKLLDNDIFSYFIKDKLKTIRKLNGIIGFGTQSAADIVKSSIANTLIEQTPTNIFFPNPKADEESHRAFGLSEREIKWIRETPPEARKFLIKHDQDSVIARLNLGAMPDAIKILSGRIETVQELDALRARVGDDPDVWLPVFLGRDPE | failed
MAIEGKTTDVANKRIRLGMVGGGSGAFIGGVHRMAARLDNRFDLVAGALSSTPEKSLASGRELGLDSERCYGSFEEMAEKEALREDGIEAVAIVTPNHVHYPAAKAFLERGIHVICDKPLTSNLEDAKKLKDVADKADALFILTHNYTGYPMVRHARELVEAGALGNIRLVQMEYPQDWLTEAVEQTGAKQAVWRTDPAQSGVGGSTGDIGTHAYNLGCFISGLEADELAADVHTFVEGRRLDDNAHVMMRFKPKGGKQPARGMLWCSQVAVGHENGLKIRLYGDKAGLEWTQADPNYLWFTKLGEPKQLITRGGAGAGAAAARVTRIPSGHPEGYLEAFATIYTEAAHAIEARRTGSALDKAVIYPTVDDGVKGVAFVTACIESGKKNGGWVKL | failed
MAIFMSYVLLGLSLAAPIGPVNAAQLDRGIKNGFFHAWLVGLGAITADVIYMLLVFFGLVHFLQLPFMQTFLWLFGFFVLVYTGIETISSVNHLKEATNMRTSETYRKSFIYGFLMSISNPLTILFWLGIFGSVLAKTASVYGPAQLVFYSSAILIGLLLWDVAMAGIASGARHMLTPARLKIVSILSGLTLIGFGVYFGLQACRVLFG | failed
